Kd data for one molecule are collected here from doi:10.1101/2024.11.26.625568 (2024).

This test deals with microtubules (pig brain tubulin) (pig, UniProt P02550 1-451; Q767L7 1-444, Cy3 or Cy5 and biotin labels on a fraction of the tubulin | Cy3 or Cy5 and biotin labels on a fraction of the tubulin).

By Kd is commonly meant the concentration at which binding is half-saturated. A high value points to weaker binding.

microtubules (pig brain tubulin), sequence (P02550 other isoform, or with tags, fused parts or gaps, chain 1 of 2): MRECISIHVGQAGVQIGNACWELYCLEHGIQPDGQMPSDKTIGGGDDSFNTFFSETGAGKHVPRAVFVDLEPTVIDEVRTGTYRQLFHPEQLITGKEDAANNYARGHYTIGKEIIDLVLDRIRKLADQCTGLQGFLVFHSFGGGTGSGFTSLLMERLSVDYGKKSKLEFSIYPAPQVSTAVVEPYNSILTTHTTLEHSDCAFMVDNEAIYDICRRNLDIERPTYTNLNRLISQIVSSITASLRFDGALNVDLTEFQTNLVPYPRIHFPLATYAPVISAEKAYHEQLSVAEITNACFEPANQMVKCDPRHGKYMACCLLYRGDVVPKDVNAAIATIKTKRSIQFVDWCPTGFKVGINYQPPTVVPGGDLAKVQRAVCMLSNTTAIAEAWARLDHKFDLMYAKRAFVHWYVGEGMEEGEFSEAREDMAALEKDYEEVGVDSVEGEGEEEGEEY
microtubules (pig brain tubulin), sequence (Q767L7 other isoform, or with tags, fused parts or gaps, chain 2 of 2): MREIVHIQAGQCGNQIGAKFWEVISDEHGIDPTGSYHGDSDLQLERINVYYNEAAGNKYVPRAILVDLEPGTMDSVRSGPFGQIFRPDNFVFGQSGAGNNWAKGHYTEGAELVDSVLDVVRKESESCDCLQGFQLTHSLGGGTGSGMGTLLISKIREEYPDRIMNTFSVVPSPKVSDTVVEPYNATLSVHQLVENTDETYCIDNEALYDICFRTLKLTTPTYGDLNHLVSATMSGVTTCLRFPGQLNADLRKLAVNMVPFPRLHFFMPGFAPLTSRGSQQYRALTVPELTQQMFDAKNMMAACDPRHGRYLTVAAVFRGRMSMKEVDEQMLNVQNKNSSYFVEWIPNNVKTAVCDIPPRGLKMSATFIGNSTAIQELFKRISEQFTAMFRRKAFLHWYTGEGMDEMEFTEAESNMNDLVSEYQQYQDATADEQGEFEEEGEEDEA

B1: NuMA Bonsai (other)
chain: MTLHATRGAALLSWVNSLHVADPVEAVLQLQDCSIFIKIIDRIHGTEEGQQILKQPVSERLDFVCSFLQKNRKHPSSPECLVSAQKVLEGSELELAKMTMLLLYHSTMSSKSPRDWEQFEYKIQAELAVILKFVLDHEDGLNLNEDLENFLQKAPVPSTCSSTFPEELSPPSHQAKREIRFLELQKVASSSSGNNFLSGSPASPMGDILQTPQFQMRRLKKQLADERSNRDELELELAENRKLLTEKDAQIAMMQQRIDRLALLNEKQAASPLEPKELEELRDKNESLTMRLHETLKQCQDLKTEKSQMDRKINQLSEENGDLSFKLREFASHLQQLQDALNELTEEHSKATQEWLEKQAQLEKELSAALQDKKCLEEKNEILQGKLSQLEEHLSQLQDNPPQEKGEVLGDVLQLETLKQEAATLAANNTQLQARVEMLETERGQQEAKLLAERGHFEEEKQQLSSLITDLQSSISNLSQAKEELEQASQAHGARLTAQVASLTSELTTLNATIQQQDQELAGLKQQAKEKQAQLAQTLQQQEQASQGLRHQVEQLSSSLKQKEQQLKEVAEKQEATRQDHAQQLATAAEEREASLRERDAALKQLEALEKEKAAKLEILQQQLQVANEARDSAQTSVTQAQREKAELSRKVEELQACVETARQEQHEAQAQVAELELQLRSEQQKATEKERVAQEKDQLQEQLQFQVATDALKSREPQAKPQLDLSIDSLDLSCEEGTPLSITSKLPRTQPDGTSVPGEPASPISQRLPPKVESLESLYFTPIPARSQAPLESSLDSLGDVFLDSGRKTRSARRRTTQIINITMTKKLDVEEPDSANSSFYSTRSAPASQASLRATSSTQSLARLGSPDYGNSALLSLPGYRPTTRSSARRSQAGVSSGAPPGRNSFYMGTCQDEPEQLDDWNRIAELQQRNRVCPPHLKTCYPLESRPSLSLGTITDEEMKTGDPQETLRRASMQPIQIAEGTGITTRQQRKRVSLEPHQGPGTPESKKATSCFPRPMTPRDRHEGRKQSTTEAQKKAAPASTKQADRRQSMAFSILNTPKKLGNSLLRRGASKKALSKASPNTRSGTRRSPRIATTTASAATAAAIGATPRAKGKAKH
B1: binding was put at a Kd of 279 nM.
